Source: PMC5018458 (Bioorganic & medicinal chemistry letters, 2016)

Tests used:
M21 human melanoma cells = assay: Cellular efflux in M21 human melanoma cells; format: cell-based; conditions: M21 cells loaded 2 h at 37 °C, then 2 h of incubation in the culture medium
[1] = test system: M21 human melanoma-xenografted nude mice; assay: Biodistribution in M21 human melanoma-xenografted nude mice; format: in vivo
[2] = test system: M21 human melanoma xenografts; assay: SPECT/CT imaging of M21 human melanoma-xenografted nude mouse; format: in vivo; conditions: about 7.4 MBq iv tail vein, 2 h post-injection
B16/F1 melanoma = conditions: 2 h post-injection; cited from earlier work

hydrazinonicotinamide-8-aminooctanoic acid-Nle-c[Asp-His-DPhe-Arg-Trp-Lys]-CONH2 (sidechain bridge or staple) [^99mTc(EDDA)-HYNIC-AocNle-CycMSHhex]
Activity remained inside the cells (cellular efflux) (M21 human melanoma cells): 66%
Uptake ratio Tumor/kidney ([1]; 0.5 h post-injection): 0.40
Uptake ratio Tumor/kidney ([1]; 2 h post-injection): 0.71
Tumor uptake blocked by co-injection of non-radioactive NDP-MSH ([1]; 2 h post-injection, 10 μg (6.07 nmol) NDP-MSH co-injected): 80%
Uptake ratio Tumor/kidney ([1]; 2 h post-injection, NDP blockade (co-injection of 10 μg NDP-MSH)): 0.17
Uptake ratio Tumor/kidney ([1]; 4 h post-injection): 0.95
Uptake ratio Tumor/kidney ([1]; 24 h post-injection): 1.13
Intestines, percent injected dose ([1]; mouse, in vivo): 1.65±0.73 %ID
Urine, percent injected dose (urinary clearance) ([1]; mouse, in vivo): 92.23±1.52 %ID
Visualization of M21 human melanoma xenografts by SPECT/CT [2]: clearly visualized
Visualization of B16/F1 melanoma lesions by SPECT/CT (B16/F1 melanoma): clearly visualized
